Measured values published in patent publication US20250327097A1, “ORGANISMS PRODUCING LESS CROTONIC ACID” (Global Bioenergies, priority 2021, published 2025).
Numbering of substitutions follows the chain as printed. Names may count otherwise.

B1: G380V-K391L-L432W-L434M (protein)
chain: MFLKSLREQINLLKRQGDLRIINRPVDSYLEAAAIIRRSTETKAPVPLMTNIKGYPGCSIVGGLAALSSNPEYPLSRVAMSLGLSTTASAQSIVQYLIDGLKKTPYLPVEIDSNSAPCKQNILRGEDASLAHFPIPQVHQHDGNRYVNTWGVFIVESPDGQWCNWSIQRVQYLNDRQMIALVFPSQHISDIWEEWVKIGKPMPYALVQGCEPIVPYIAGLPLLERNVNEAEYIGALYGKGIEVVKCETHDLRVPASSEVVIEGYFAITREGVEGPFGEFAGYIPNENSLQPILSITAISWQDDPIWPVVAEGKPVDEYHTCSGIGDAAAIQNVLLTANLPVSFVWVPLYSACHLMIVSINRHWRQTHPDLTSEQLTKKVVDVIHQTRNSILLPKIVVLDDDVDPADTESLLWALATRIHPERKRYFYESCIWPMLSCYSEEERHNRKGKRVIIDALLPENHGAISSFDYAYPDDIKQRVLMHWETDFSHD
B2: E224P-I283T-N285P-N287T-Q290E-S322T-N388M-S389H-K394R-C430A-i430aG-L432F-L434W-S436N-I453L-dG462 (protein)
chain: MFLKSLREQINLLKRQGDLRIINRPVDSYLEAAAIIRRSTETKAPVPLMTNIKGYPGCSIVGGLAALSSNPEYPLSRVAMSLGLSTTASAQSIVQYLIDGLKKTPYLPVEIDSNSAPCKQNILRGEDASLAHFPIPQVHQHDGNRYVNTWGVFIVESPDGQWCNWSIQRVQYLNDRQMIALVFPSQHISDIWEEWVKIGKPMPYALVQGCEPIVPYIAGLPLLPRNVNEAEYIGALYGKGIEVVKCETHDLRVPASSEVVIEGYFAITREGVEGPFGEFAGYTPPETSLEPILSITAISWQDDPIWPVVAEGKPVDEYHTCTGIGDAAAIQNVLLTANLPVSFVWVPLYSACHLMIVSINRHWRQTHPDLTSEQLTKKVGDVIHQTRMHIKLPRIVVLDDDVDPADTESLLWALATRIHPERKRYFYESAIFPWLNCYSEEERHNRKGKRVILDALLPENHGAISSFDYAYPDDIKQRVLMHWETDFSHD
B3: I283T-P284D-i284aP-N287P-S322T-N388M-E421V-C430N-L432F-L434W-S436N-C437F-Y438L-H461T-G462R-i462aA-A463T (protein)
chain: MFLKSLREQINLLKRQGDLRIINRPVDSYLEAAAIIRRSTETKAPVPLMTNIKGYPGCSIVGGLAALSSNPEYPLSRVAMSLGLSTTASAQSIVQYLIDGLKKTPYLPVEIDSNSAPCKQNILRGEDASLAHFPIPQVHQHDGNRYVNTWGVFIVESPDGQWCNWSIQRVQYLNDRQMIALVFPSQHISDIWEEWVKIGKPMPYALVQGCEPIVPYIAGLPLLERNVNEAEYIGALYGKGIEVVKCETHDLRVPASSEVVIEGYFAITREGVEGPFGEFAGYTDNEPSLQPILSITAISWQDDPIWPVVAEGKPVDEYHTCTGIGDAAAIQNVLLTANLPVSFVWVPLYSACHLMIVSINRHWRQTHPDLTSEQLTKKVGDVIHQTRMSIKLPKIVVLDDDVDPADTESLLWALATRIHPVRKRYFYESNIFPWLNFLSEEERHNRKGKRVIIDALLPENTRTISSFDYAYPDDIKQRVLMHWETDFSHD
B4: V272R-I283T-P284D-i284aP-N287P-S322T-N388M-E421V-E428T-C430N-L432F-L434W-S436N-G448E-H461T-G462R-i462aA-A463T (protein)
chain: B3 chain with V272R, E428T, F437C, L438Y, G448E
B5: V272I-I283T-P284D-i284aP-N287P-S322T-N388M-E421V-C430R-L432F-L434W-S436N-C437F-H461T-G462R-i462aA-A463T (protein)
chain: B3 chain with V272I, N430R, L438Y
B6: S39G-V272R-I283T-P284D-i284aP-N287P-S322T-N388M-E421V-F426L-E428T-C430N-L432F-L434W-S436N-G448E-H461T-G462R-i462aA-A463T (protein)
chain: B3 chain with S39G, V272R, F426L, E428T, F437C, L438Y, G448E
B7: V272R-I283T-P284D-i284aP-N287P-S322T-N388M-E421V-C430N-L432F-L434W-S436N-E441H-G448E-H461T-G462R-i462aA-A463T (protein)
chain: B3 chain with V272R, F437C, L438Y, E441H, G448E
B8: V272R-I283T-P284D-i284aP-N287P-S322T-N388M-I418V-E421V-C430N-L432F-L434W-S436N-G448E-H461T-G462R-i462aA-A463T (protein)
chain: B3 chain with V272R, I418V, F437C, L438Y, G448E
B9: V272R-I283T-P284D-i284aP-N287P-S322T-N388M-E421V-E428T-C430N-L432F-L434W-S436N-K447I-G448E-H461T-G462R-i462aA-A463T (protein)
chain: B3 chain with V272R, E428T, F437C, L438Y, K447I, G448E
B10: V272I-I283T-P284D-i284aP-N287P-S322T-N388M-E421V-C430R-L432F-L434W-S436N-C437F-Y438L-H461T-G462R-i462aA-A463T (protein)
chain: B3 chain with V272I, N430R
B11: I283T-P284D-i284aP-N287P-S322T-N388M-E421V-C430N-L432F-L434W-S436Q-C437F-H461T-G462R-i462aA-A463T (protein)
chain: B3 chain with N436Q, L438Y
B12: I283T-P284D-i284aP-N287P-S322T-N388M-E421V-C430N-L432F-L434W-S436N-C437F-E441V-H461T-G462R-i462aA-A463T (protein)
chain: B3 chain with L438Y, E441V
B13: V272I-I283T-P284D-i284aP-N287P-S322T-N388M-E421V-C430N-L432F-L434W-S436N-C437F-Y438L-H461T-G462R-i462aA-A463T (protein)
chain: B3 chain with V272I
B14: G17S-V272R-I283T-P284D-i284aP-N287P-S322T-N388M-E421K-C430N-L432F-L434W-S436N-G448E-H461T-G462R-i462aA-A463T (protein)
chain: B3 chain with G17S, V272R, V421K, F437C, L438Y, G448E
B15: I283T-P284D-i284aP-N287P-S322T-N388M-E421V-C430R-L432F-L434W-S436N-C437F-Y438L-H461T-G462R-i462aA-A463T (protein)
chain: B3 chain with N430R

Test system: 3-methylcrotonic acid
Format: biochemical, Yersinia frederiksenii
Design: key: “+” representing a low increase in activity; “++++” representing a high increase in activity

| Molecule | Activity relative to WT |
| --- | --- |
| B1 | + |
| B2 | ++++ |
| B3 | ++++ |
| B4 | ++++ |
| B5 | ++++ |
| B6 | ++++ |
| B7 | ++++ |
| B8 | ++++ |
| B9 | ++++ |
| B10 | ++++ |
| B11 | ++++ |
| B12 | ++++ |
| B13 | ++++ |
| B14 | ++++ |
| B15 | ++++ |
